Measurements reported in patent US20220389118A1 (Chugai, published 2022).

Target: T1, human FcRn (human, UniProt P55899 24-297; P61769 21-119)
T1 construct: the construct is not described
Experiment: FcRn binding affinity at pH 6.0; method not stated

T1 sequence (P55899 24-297 limits assumed, chain 1 of 2): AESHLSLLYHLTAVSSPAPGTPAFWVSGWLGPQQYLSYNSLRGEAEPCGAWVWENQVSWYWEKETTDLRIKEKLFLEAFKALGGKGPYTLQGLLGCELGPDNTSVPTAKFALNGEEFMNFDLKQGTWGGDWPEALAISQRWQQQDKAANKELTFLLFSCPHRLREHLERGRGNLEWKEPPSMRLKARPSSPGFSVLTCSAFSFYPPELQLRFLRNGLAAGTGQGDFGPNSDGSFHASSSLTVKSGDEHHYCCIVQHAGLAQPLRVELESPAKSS
T1 sequence (P61769 21-119 limits assumed, chain 2 of 2): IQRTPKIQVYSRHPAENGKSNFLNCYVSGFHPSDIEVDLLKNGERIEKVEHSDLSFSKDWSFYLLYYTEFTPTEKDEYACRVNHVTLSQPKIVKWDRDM

| Binder | Kd |
| --- | --- |
| Fv4-F1171 (antibody, human IgG1, kappa, copies: 2 + 2) heavy: QVQLQESGPGLVKPSETLSLTCAVSGHSISHDHAWSWVRQPPGEGLEWIGFISYSGITNYNPSLQGRVTISRDNSKNTLYLQMNSLRAEDTAVYYCARSLARTTAMDYWGEGTLVTVSSASTKGPSVFPLAPSSKSTSGGTAALGCLVKDYFPEPVTVSWNSGALTSGVHTFPAVLQSSGLYSLSSVVTVPSSSLGTQTYICNVNHKPSNTKVDKKVEPKSCDKTHTCPPCPAPELLGGPSVFLFPPKPKDTLMISRTPEVTCVVVDVSHEDPEVKFNWYVDGVEVHNAKTKPREEQYNSTYRVVSVLTVLHQDWLNGKEYKCKVSNKALPAPIEKTISKAKGQPREPQVYTLPPSRDELTKNQVSLTCLVKGFYPSDIAVEWESNGQPENNYKTTPPVLDSDGSFFLYSKLTVDKSRWQQGNVFNCSVLHEALHSHYTQKSLSLSP light: DIQMTQSPSSLSASVGDSVTITCQASTDISSHLNWYQQKPGKAPELLIYYGSHLLSGVPSRFSGSGSGTDFTFTISSLEAEDAATYYCGQGNRLPYTFGQGTKVEIERTVAAPSVFIFPPSDEQLKSGTASVVCLLNNFYPREAKVQWKVDNALQSGNSQESVTEQDSKDSTYSLSSTLTLSKADYEKHKVYACEVTHQGLSSPVTKSFNRGEC | 240 nM |
| Fv4-N434H (antibody, human IgG1, kappa, copies: 2 + 2) heavy: not shown light: DIQMTQSPSSLSASVGDSVTITCQASTDISSHLNWYQQKPGKAPELLIYYGSHLLSGVPSRFSGSGSGTDFTFTISSLEAEDAATYYCGQGNRLPYTFGQGTKVEIERTVAAPSVFIFPPSDEQLKSGTASVVCLLNNFYPREAKVQWKVDNALQSGNSQESVTEQDSKDSTYSLSSTLTLSKADYEKHKVYACEVTHQGLSSPVTKSFNRGEC | 430 nM |
| Fv4-F1172 (antibody, IgG1, copies: 2 + 2) heavy: QVQLQESGPGLVKPSETLSLTCAVSGHSISHDHAWSWVRQPPGEGLEWIGFISYSGITNYNPSLQGRVTISRDNSKNTLYLQMNSLRAEDTAVYYCARSLARTTAMDYWGEGTLVTVSSASTKGPSVFPLAPSSKSTSGGTAALGCLVKDYFPEPVTVSWNSGALTSGVHTFPAVLQSSGLYSLSSVVTVPSSSLGTQTYICNVNHKPSNTKVDKKVEPKSCDKTHTCPPCPAPELLGGPSVFLFPPKPKDTLMISRTPEVTCVVVDVSHEDPEVKFNWYVDGVEVHNAKTKPREEQYNSTYRVVSVLTVLHQDWLNGKEYKCKVSNKALPAPIEKTISKAKGQPREPQVYTLPPSRDELTKNQVSLTCLVKGFYPSDIAVEWESNGQPENNYKTTPPVLDSDGSFFLYSKLTVDKSRWQQGNVFSCSVMHEALHHHYTRKELSLSP light: DIQMTQSPSSLSASVGDSVTITCQASTDISSHLNWYQQKPGKAPELLIYYGSHLLSGVPSRFSGSGSGTDFTFTISSLEAEDAATYYCGQGNRLPYTFGQGTKVEIERTVAAPSVFIFPPSDEQLKSGTASVVCLLNNFYPREAKVQWKVDNALQSGNSQESVTEQDSKDSTYSLSSTLTLSKADYEKHKVYACEVTHQGLSSPVTKSFNRGEC | 400 nM |
| Fv4-F1173 (antibody, human IgG1, kappa, copies: 2 + 2) heavy: not shown light: DIQMTQSPSSLSASVGDSVTITCQASTDISSHLNWYQQKPGKAPELLIYYGSHLLSGVPSRFSGSGSGTDFTFTISSLEAEDAATYYCGQGNRLPYTFGQGTKVEIERTVAAPSVFIFPPSDEQLKSGTASVVCLLNNFYPREAKVQWKVDNALQSGNSQESVTEQDSKDSTYSLSSTLTLSKADYEKHKVYACEVTHQGLSSPVTKSFNRGEC | 530 nM |
